Assay [1] deals with T1, Ab-1.
T1 construct: also called anti-CD28 scFv harbored in Ab-1
The experiment in a line: competition ELISA, peptide titrated vs 1 nM Ab-1 binding plate-bound CD28. (In an ELISA, binding on a coated surface is turned into a signal by an enzyme label.)

Assay [2] concerns the target T1, Ab-1. Kind of assay: BLI (Octet), 200 nM peptide, 100 nM Ab-1. (In BLI a coated tip is dipped into the sample, and binding shifts an interference pattern.)
Assay [3] has as its target T1, Ab-1. The experiment in a line: binding ELISA, peptide captured, Ab-1 titrated.

No end group written: not given here.
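For Octet signal in this document: association and dissociation phases tracked in real time, with kinetics fitted to a 1:1 interaction model.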
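For t1/2 in this document: association and dissociation phases tracked in real time, with kinetics fitted to a 1:1 interaction model.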

Take NDWCPRDLWVHCFA (cysteine pairing not given here; also: biotinylated, site not given here) [Peptide-4]: the IC50 with Ab-1 [1] turned out to be 5.03 µM. In the assay with Ab-1 [2], the Octet signal amounted to 0.434 and the t1/2 is 4 min. For the same molecule, in the assay with Ab-1 [3], a half-maximal response (EC50) required 0.0843 µM.

Turning to HDWCPRDLWVHCFA (cysteine pairing not given here; also: biotinylated, site not given here) [Peptide-9], the IC50 in the assay with Ab-1 [1] is 2.18 µM. In the assay with Ab-1 [2], this molecule came in with an Octet signal of 0.737 and a t1/2 of 3 min. The EC50 with Ab-1 [3] was 0.0454 µM.

DDWCPRDLWVHCFA (cysteine pairing not given here; also: biotinylated, site not given here) [Peptide-5] had an IC50 with Ab-1 [1] of 4.46 µM. In the assay with Ab-1 [2], this molecule gave an Octet signal of 0.461 and a t1/2 of 4.2 min. The same molecule had an EC50 with Ab-1 [3] of 0.0868 µM.

For IDWCPRDLWVHCFA (cysteine pairing not given here; also: biotinylated, site not given here) [Peptide-10], the half-inhibitory concentration (IC50) with Ab-1 [1] came out at 2.66 µM. In the assay with Ab-1 [2], the Octet signal amounted to 0.845 and the t1/2 is 3.1 min. The midpoint of the response with Ab-1 [3], the EC50, lay at 0.0449 µM.

Regarding PDWCPRDLWVHCFA (cysteine pairing not given here; also: biotinylated, site not given here) [Peptide-14], the IC50 with Ab-1 [1] worked out at 8.34 µM. In addition, in the assay with Ab-1 [2], the Octet signal was found to be 0.328 and the t1/2 was determined as 3.4 min. The midpoint of the response with Ab-1 [3], the EC50, lay at 0.102 µM.

Regarding YDWCPRDLWVHCFA (cysteine pairing not given here; also: biotinylated, site not given here) [Peptide-18], the IC50 with Ab-1 [1] came to 3.25 µM. Also, in the assay with Ab-1 [2], the Octet signal stood at 0.849 and the t1/2 came out at 2.9 min. Further, the EC50 with Ab-1 [3] came out at 0.0322 µM.

Take FDWCPRDLWVHCFA (cysteine pairing not given here; also: biotinylated, site not given here) [Peptide-13]: in the assay with Ab-1 [1], the IC50 worked out at 0.78 µM. In the assay with Ab-1 [2], this molecule came in with an Octet signal of 1.01 and a t1/2 of 3.3 min. In the assay with Ab-1 [3], this molecule showed an EC50 of 0.0393 µM.

WDWCPRDLWVHCFA (cysteine pairing not given here; also: biotinylated, site not given here) [Peptide-17] came in with an IC50 with Ab-1 [1] of 2.8 µM. In the assay with Ab-1 [2], this molecule registered an Octet signal of 1.15 and a t1/2 of 4.1 min. A half-maximal effect with Ab-1 [3] (EC50) was put at 0.0217 µM.

In the assay with Ab-1 [1], LDWCPRDLWVHCFA (cysteine pairing not given here; also: biotinylated, site not given here) [Peptide-11] showed an IC50 of 0.63 µM. In the assay with Ab-1 [2], this molecule had an Octet signal of 1.37 and a t1/2 of 4.5 min. In the assay with Ab-1 [3], this molecule registered an EC50 of 0.0234 µM.

Take GDWCPRDLWVHCFA (cysteine pairing not given here; also: biotinylated, site not given here) [Peptide-8]: in the assay with Ab-1 [1], the IC50 is 7.06 µM. In the assay with Ab-1 [2], this molecule had an Octet signal of 0.479 and a t1/2 of 3.9 min. In the assay with Ab-1 [3], this molecule gave an EC50 of 0.0739 µM.

As to SDWCPRDLWVHCFA (cysteine pairing not given here; also: biotinylated, site not given here) [Peptide-15], the IC50 with Ab-1 [1] came to 2.63 µM. Also, in the assay with Ab-1 [2], the Octet signal came out at 0.551 and the t1/2 came out at 2.9 min. Moreover, a half-maximal response with Ab-1 [3] (EC50) required 0.0665 µM.

A word on the IC50: it is the concentration at which inhibition is half-maximal. Higher therefore signals lower potency. The EC50 is the concentration at which the effect is half-maximal. Low values mean a more potent agent, high ones a less potent agent.

Values taken from patent US20260274955A1 (JANUX THERAPEUTICS, published 2026).
